According to patent US20260232732A1 (FUNDACI INSTITUT DE RECERCA CONTRA LA LEUC MIA JOSEP …, published 2026):
One block for each binder: values may come before it. Where no end group is shown, it is not given here. The star is where a group is joined. Biotin = O=C1N[C@H]2[C@H](CS[C@H]2CCCCC(=O)*)N1

Key:
[1] = biological target: T1, Peptide 3-BSA (SSMEDYVNFN-C conjugated to BSA) (human); test: ELISA; Ab 0.5 ug/mL; repII
T1 peptide: SSMEDYVNFNC(BSA)
Procedure: (§1) In brief, plates with each non-conjugated peptide (50 μg/mL) or BSA-conjugated peptide (5 μg/mL) were coated in 0.58M carbonate-bicarbonate buffer pH9.5, 100 μL/well, at 4° C. […] After washing, wells were incubated with the 3, 3′,5,5′-Tetramethylbenzidine (TMB) HRP substrate and reactions were stopped with 2M HCl and OD450 was recorded.

[2] = biological target: T2, Peptide 4-BSA (SMEDYVNFNF-C conjugated to BSA) (human); test: ELISA; Ab 0.5 ug/mL; repII
T2 peptide: SMEDYVNFNFC(BSA)
Procedure: as §1

[3] = biological target: T3, Peptide 1, non-conjugated (MADDYGSEST-C) (human); test: ELISA; Ab 0.5 ug/mL; repII
T3 construct: With the extra C-terminal Cys
T3 peptide: MADDYGSESTC
Procedure: as §1

[4] = biological target: T4, Peptide 2, non-conjugated (GSESTSSMED-C) (human); test: ELISA; Ab 0.5 ug/mL; repII
T4 construct: With the extra C-terminal Cys
T4 peptide: GSESTSSMEDC
Procedure: as §1

[5] = biological target: T5, Peptide 3, non-conjugated (SSMEDYVNFN-C) (human); test: ELISA; Ab 0.5 ug/mL; repII
T5 construct: With the extra C-terminal Cys
T5 peptide: SSMEDYVNFNC
Procedure: as §1

[6] = biological target: T6, Peptide 4, non-conjugated (SMEDYVNFNF-C) (human); test: ELISA; Ab 0.5 ug/mL; repII
T6 construct: With the extra C-terminal Cys
T6 peptide: SMEDYVNFNFC
Procedure: as §1

[7] = biological target: T7, BSA (negative control coating) (bovine, UniProt P02769 25-607); test: ELISA; Ab 0.5 ug/mL; repII
T7 construct: also called Negative control BSA
Procedure: as §1

[8] = biological target: T8, antigen peptide-BSA (immunisation peptide #1 MADDYGSESTSSMEDYVNFNF-C conjugated to BSA) (human, extra C-terminal Cys conjugated to BSA); test: ELISA; Ab 0.5 ug/mL; repII
T8 construct: also called Positive control antigen peptide-BSA; MADDY peptide
T8 peptide: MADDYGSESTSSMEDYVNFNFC
Procedure: as §1

[9] = biological target: T9, Peptide 1-BSA (MADDYGSEST-C conjugated to BSA) (human); test: ELISA; Ab 0.5 ug/mL; repII
T9 peptide: MADDYGSESTC(BSA)
Procedure: as §1

[10] = biological target: T10, Peptide 2-BSA (GSESTSSMED-C conjugated to BSA) (human); test: ELISA; Ab 0.5 ug/mL; repII
T10 peptide: GSESTSSMEDC(BSA)
Procedure: as §1

[11] = biological target: T1, Peptide 3-BSA (SSMEDYVNFN-C conjugated …); test: ELISA; Ab 0.03125 ug/mL; repI
Procedure: as §1

[12] = biological target: T2, Peptide 4-BSA (SMEDYVNFNF-C conjugated …); test: ELISA; Ab 0.03125 ug/mL; repI
Procedure: as §1

[13] = biological target: T3, Peptide 1, non-conjugated (MADDYGSEST-C); test: ELISA; Ab 0.03125 ug/mL; repI
Procedure: as §1

[14] = biological target: T4, Peptide 2, non-conjugated (GSESTSSMED-C); test: ELISA; Ab 0.03125 ug/mL; repI
Procedure: as §1

[15] = biological target: T5, Peptide 3, non-conjugated (SSMEDYVNFN-C); test: ELISA; Ab 0.03125 ug/mL; repI
Procedure: as §1

[16] = biological target: T6, Peptide 4, non-conjugated (SMEDYVNFNF-C); test: ELISA; Ab 0.03125 ug/mL; repI
Procedure: as §1

[17] = biological target: T7, BSA (negative control coating); test: ELISA; Ab 0.03125 ug/mL; repI
Procedure: as §1

[18] = biological target: T8, antigen peptide-BSA (immunisation …); test: ELISA; Ab 0.03125 ug/mL; repI
Procedure: as §1

[19] = biological target: T9, Peptide 1-BSA (MADDYGSEST-C conjugated …); test: ELISA; Ab 0.03125 ug/mL; repI
Procedure: as §1

[20] = biological target: T10, Peptide 2-BSA (GSESTSSMED-C conjugated …); test: ELISA; Ab 0.03125 ug/mL; repI
Procedure: as §1

[21] = biological target: T11, biotin-peptide TSSMEDYVNF (human); test: ELISA biotin-peptide; scFv 10 ug/mL; repII
T11 peptide: Biotin-TSSMEDYVNF
Procedure: (§2) The peptides were synthesized naked or with a N-terminal Biotin modification with a purity of >98%. All four scFvs were verified by ELISA that can be detected with anti-His antibodies. ELISA was performed for scFv-peptide binding validation. Briefly, naked peptides were coated (50 μg/mL) in 0.58M carbonate-bicarbonate buffer pH9.5, 100 μL/well, 4° C. O/N. Then after blocking (3% BSA-PBS, 300 μL/well 37° C. 1.5 h) and washing (PBS+Tween-20 0.05% v/v (0.05% PBST), wells were incubated with each purified scFv antibody at concentration of 1 μg/mL in PBS at 37° C. 1 h. After washing (0.05% PBST), wells were incubated with secondary antibodies (goat anti-His IgG-HRP) in PBS, 37° C., 30 min. After washing, and incubation with TMB substrate, reactions were stopped with 2M HCl and reading was quantified at OD450.
(§3) ELISA with biotin-conjugated peptides (5 μg/mL) was performed very similar to described above with minor modifications.
(§4) A full curve ELISA was performed for each positive scFv/biotin-peptide pair in order to confirm previous results. Tables 15-17 show ELISA results of the dose-dependent full curve for each positive peptide with scFv “CCR9_HUM”, “Comp-2” and “Comp-3”, respectively.

[22] = biological target: T12, biotin-peptide SSMEDYVNFN (human); test: ELISA biotin-peptide; scFv 10 ug/mL; repII
T12 peptide: Biotin-SSMEDYVNFN
Procedure: as §2, §3, §4

[23] = biological target: T13, biotin-peptide SMEDYVNFNF (human); test: ELISA biotin-peptide; scFv 10 ug/mL; repII
T13 peptide: Biotin-SMEDYVNFNF
Procedure: as §2, §3, §4

[24] = biological target: T14, biotin-peptide MEDYVNFNFT (human); test: ELISA biotin-peptide; scFv 10 ug/mL; repII
T14 peptide: Biotin-MEDYVNFNFT
Procedure: as §2, §3, §4

T7 sequence (P02769 25-607 limits assumed): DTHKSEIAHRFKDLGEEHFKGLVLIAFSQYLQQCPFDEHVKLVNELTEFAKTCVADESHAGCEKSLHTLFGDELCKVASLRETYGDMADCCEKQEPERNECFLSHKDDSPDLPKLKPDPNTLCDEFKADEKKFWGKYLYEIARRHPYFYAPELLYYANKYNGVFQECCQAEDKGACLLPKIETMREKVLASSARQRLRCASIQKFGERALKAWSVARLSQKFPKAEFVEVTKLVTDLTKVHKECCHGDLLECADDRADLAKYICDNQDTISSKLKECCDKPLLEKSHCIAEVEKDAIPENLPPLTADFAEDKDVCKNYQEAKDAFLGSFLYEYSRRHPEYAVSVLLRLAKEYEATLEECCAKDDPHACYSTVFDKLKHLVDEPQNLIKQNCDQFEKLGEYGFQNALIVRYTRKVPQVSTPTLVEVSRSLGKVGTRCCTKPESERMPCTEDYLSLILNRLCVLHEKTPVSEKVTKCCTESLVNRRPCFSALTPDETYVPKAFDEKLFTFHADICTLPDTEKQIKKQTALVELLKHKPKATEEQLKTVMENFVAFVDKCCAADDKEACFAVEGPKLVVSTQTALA

OD450 [1]: 2.06 OD
OD450 [2]: 2.65 OD
OD450 [3]: 0.02 OD
OD450 [4]: 0.02 OD
OD450 [5]: 1.83 OD
OD450 [6]: 2.37 OD
OD450 [7]: 0.02 OD
OD450 [8]: 2.57 OD
OD450 [9]: 0.02 OD
OD450 [10]: 0.02 OD
OD450 [11]: 1.66 OD
OD450 [12]: 1.44 OD
OD450 [13]: 0.01 OD
OD450 [14]: 0.01 OD
OD450 [15]: 1.65 OD
OD450 [16]: 0.67 OD
OD450 [17]: 0.01 OD
OD450 [18]: 1.28 OD
OD450 [19]: 0.01 OD
OD450 [20]: 0.01 OD
B1: anti-CCR9 antibody clone 115 (murine, from hybridoma #115) (antibody, V domains shown)
VH: QVQLKQSGPELVKPGTSVRVSCTASGYSFTDYIIYWVKQSHGRSLEWIGYIDPNNYNTRYSQKFKGKATLTVDKSSTSAFMHLNSLTSDDSAVYYCARDVYWGQGTTLTVSS
VL: DVVMTQTPLSLTVSLGDQASISCRSSQSLVHSNGKTYLQWYLQKPGQSPKLLIYKVSNRFSGVPDRFSGSGSGTDFTLKISRVEAEDLGVYFCAQSTHVWTFGGGTKLEIKR
notes: Mouse IgG1

OD450 [21]: 1.36 OD
OD450 [22]: 1.87 OD
OD450 [23]: 1.85 OD
OD450 [24]: 1.79 OD
B2: CCR9_HUM2 scFv (humanized anti-CCR9 scFv, SEQ ID NO: 17 with C-terminal 6xHis tag) (scFv)
scFv: QVQLVQSGAEVKKPGASVKVSCTASGYSFTDYIIYWVKQAHGQSLEWMGYIDPNNYNTRYSQKFQGKVTITVDKSSTSAYMELNSLTSDDTAVYYCARDVYWGQGTTVTVSSGGGGSGGGGSGGGGSGGGGSDVVMTQTPLSLSVTPGQPASISCRSSQSLVHSNGKTYLQWYLQKPGQSPKLLIYKVSNRFSGVPDRFSGSGSGTDFTLKISRVEAEDVGVYFCAQSTHVWTFGGGTKVEIKRAHHHHHH
